What was measured:
Assay in all cases: ELISA, lectin-captured E1E2 lysate, Ab 1 ug/ml
[1] = target: E1E2 complex (H77) with E1 mutation T329A (HCV genotype 1a, isolate H77) (UniProt P27958)
[2] = target: E1E2 complex (H77) with E1 mutation F293A (HCV genotype 1a, isolate H77) (UniProt P27958)
[3] = target: E1E2 complex (H77) with E1 mutation G354A (HCV genotype 1a, isolate H77) (UniProt P27958)
[4] = target: E1E2 complex (H77) with E1 mutation N196A/N209A (HCV genotype 1a, isolate H77) (UniProt P27958)
[5] = target: E1E2 complex (H77) with E1 mutation G350A (HCV genotype 1a, isolate H77) (UniProt P27958)
[6] = target: E1E2 complex (H77) with E2 mutation H638A (HCV genotype 1a, isolate H77) (UniProt P27958)
[7] = target: E1E2 complex (H77) with E2 mutation L427A (HCV genotype 1a, isolate H77) (UniProt P27958)
[8] = target: E1E2 complex (H77) with E1 mutation S327A (HCV genotype 1a, isolate H77) (UniProt P27958)
[9] = target: E1E2 complex (H77) with E1 mutation W353A (HCV genotype 1a, isolate H77) (UniProt P27958)
[10] = target: E1E2 complex (H77) with E2 mutation R614A (HCV genotype 1a, isolate H77) (UniProt P27958)
[11] = target: E1E2 complex (H77) with E1 mutation M323A (HCV genotype 1a, isolate H77) (UniProt P27958)
[12] = target: E1E2 complex (H77) with E1 mutation V194A (HCV genotype 1a, isolate H77) (UniProt P27958)
[13] = target: E1E2 complex (H77) with E1 mutation M322A (HCV genotype 1a, isolate H77) (UniProt P27958)
[14] = target: E1E2 complex (H77) with E1 mutation P295A (HCV genotype 1a, isolate H77) (UniProt P27958)
[15] = target: E1E2 complex (H77) with E1 mutation D263A (HCV genotype 1a, isolate H77) (UniProt P27958)
[16] = target: E1E2 complex (H77) with E1 mutation T255A (HCV genotype 1a, isolate H77) (UniProt P27958)
[17] = target: E1E2 complex (H77) with E2 mutation T621A (HCV genotype 1a, isolate H77) (UniProt P27958)
[18] = target: E1E2 complex (H77) with E1 mutation Y201A (HCV genotype 1a, isolate H77) (UniProt P27958)
[19] = target: E1E2 complex (H77) with E1 mutation D346A (HCV genotype 1a, isolate H77) (UniProt P27958)
[20] = target: E1E2 complex (H77) with E1 mutation W326A (HCV genotype 1a, isolate H77) (UniProt P27958)
[21] = target: E1E2 complex (H77) with E1 mutation T314A (HCV genotype 1a, isolate H77) (UniProt P27958)
[22] = target: E1E2 complex (H77) with E2 mutation F442A (HCV genotype 1a, isolate H77) (UniProt P27958)
[23] = target: E1E2 complex (H77) with E2 mutation R639A (HCV genotype 1a, isolate H77) (UniProt P27958)
[24] = target: E1E2 complex (H77) with E1 mutation D279A (HCV genotype 1a, isolate H77) (UniProt P27958)
[25] = target: E1E2 complex (H77) with E1 mutation N305A/N209A (HCV genotype 1a, isolate H77) (UniProt P27958)
[26] = target: E1E2 complex (H77) with E1 mutation N196A/N234A (HCV genotype 1a, isolate H77) (UniProt P27958)
[27] = target: E1E2 complex (H77) with E1 mutation G278A (HCV genotype 1a, isolate H77) (UniProt P27958)
[28] = target: E1E2 complex (H77) with E1 mutation S211A (HCV genotype 1a, isolate H77) (UniProt P27958)
[29] = target: E1E2 complex (H77) with E1 mutation P341A (HCV genotype 1a, isolate H77) (UniProt P27958)

mouse anti-E1 MAb A4 (antibody) was tested, and the Binding relative to wt (%) [1] was 89%, the Binding relative to wt (%) [2] was 87% and the Binding relative to wt (%) [3] was 105%. It also gave a Binding relative to wt (%) [4] of 51%, a Binding relative to wt (%) [5] of 79% and a Binding relative to wt (%) [6] of 104%. The Binding relative to wt (%) [7] was 102%, the Binding relative to wt (%) [8] was 85% and the Binding relative to wt (%) [9] was 75%. It also gave a Binding relative to wt (%) [10] of 133%, a Binding relative to wt (%) [11] of 69% and a Binding relative to wt (%) [12] of 160%. The Binding relative to wt (%) [13] was 115%, the Binding relative to wt (%) [14] was 132% and the Binding relative to wt (%) [15] was 96%. For the same substance, the Binding relative to wt (%) [16] was 106%, the Binding relative to wt (%) [17] was 114% and the Binding relative to wt (%) [18] was 5%. For the same substance, the Binding relative to wt (%) [19] was 87%, the Binding relative to wt (%) [20] was 72% and the Binding relative to wt (%) [21] was 99%. It also gave a Binding relative to wt (%) [22] of 90%, a Binding relative to wt (%) [23] of 162% and a Binding relative to wt (%) [24] of 28%. The Binding relative to wt (%) [25] was 117%, the Binding relative to wt (%) [26] was 71% and the Binding relative to wt (%) [27] was 58%. The Binding relative to wt (%) [28] was 106% and the Binding relative to wt (%) [29] was 101%.
